Data: the DeepSol protein solubility set

Test: soluble on expression in E. coli; label from the status in PepcDB or PDB records

Sequence | soluble on expression in E. coli
GEETRTEVEKKNYMNNAEEAKDVLLGVYRTNTLDAMYGYYLSILFNLGTDISQVEGSGNENFRIIPTNSFPTTQSEVQQTWAALYTGIYRANDFLERISNKIGSYTTTDKKLATLYIAEARALRGMFYFELVRRFGNVVLMTSTQMSNQNPATYVQSAPEKVYEYIEDDLLYACDILPYATDDQYRESNDYRFSKGAALGLLTKVYATWAGYPVKDESKWEAAAKTARILVESGKHGLLKDYEQLWKNTCNGTWDPTESLIEISFYSPTVSGNSDPVGRIGKWNGVKTTAIAGVRGSCAANVKVVHTFVLDWREDVSDIRRDLSIANYQYTDTKKSLWVAGASDTDESAAEKDADPTKAQKNKQNYTPAKWDIQKYVTTNSFINNDKSNVNWYFLRYADVLLLYAEALNEWKHGPDAEAYNAINAVRRRGYGNPSNTSACDLPQGLDETSFREAVRKERSYELSFEGHRRQDLIRWGIYYKTVQATAKELGYWWEGTGSPNYSVATYTEEGKHELFPIPQRDMDLCIQFNQNPKW | soluble
MGSITENTSWNKEFSAEAVNGVFVLCKSSSKSCATNDLARASKEYLPASTFKIPNAIIGLETGVIKNEHQVFKWDGKPRAMKQWERDLTLRGAIQVSAVPVFQQIAREVGEVRMQKYLKKFSYGNQNISGGIDKFALEGQLRISAVNQVEFLESLYLNKLSASKENQLIVKEALVTEAAPEYLVHSKTGFSGVGTESNPGVAWWVGWVEKETEVYFFAFNMDIDNESKLPLRKSIPTKIMESEGIIGG | soluble
MSSNPSSVEKKLLHYTGKAIADFNMIQRGDRVMVCLSGGKDSFTLLTILNQLRIKSGNKFEIFAFTLDQAQPGWNDACLRQWLAEKSIPHEILTRDTYSIVKEKIPEGKTYCSLCSRLRRGIIYRYAEENGFNKIALGHHRDDLVRTLMMSILYNGDIRSMPPKLLSDNKKHIVIRPLCYVQEKDIITFASEQAFPIIPCNLCGSQENLMRKKVASLIDQLAIENPKVPSNMLHALQSLKPSQLMDQNFWNFKNLEDGLETTQSIQCEEVFNAQEFELEDEKI | not soluble
SKCIPYSVLLKDLEMRNLRELEDLIIEAVYTDIIQGKLDQRNQLLEVDFCIGRDIRKKDINNIVKTLHEWCDGCEAVLLGIEQQVLRANQYKENHNRTQQQVEAEVTNIKKTLKATASSSAQEMEQQLAERECPPHAEQRQPTKKMSKVKGLVSSRH | soluble
MAHHHHHHMMLRRLFVFDAARATNMRFLTMTSEVRDNLTKQLSALKEECRGQGLDLADMSDASRVAMRTVQEGLTRVSVEDEIFKGKSITLSASMKAYTARLSNLQDEARSIQTEVDALLKMMWGTEAPTKAASFASPPRSTEEVGVSSSSAAAAAGGKGNETVDDEFIVEPPPLAKALGNDKRPAERVEAERVQGTAHKPVEEMRVEEIEVETIEVEVEPNESPADNMKITDITRELYERGVNFSDCLDARTLRQRYKDVLAGKISPGISPGTATSSPATAEANTNQPRMPQHRPYQQQQQQQQQQLNTNESGLAHDPYPNAYRKMVDPMKHVWELKNELAAEKGIDPKSVDLWSGKCKLEDHKLLYDYPSVQNYPIEVRQKGDIPR | not soluble
MGSDKIHHHHHHMIVLLREINRYCKEKATGKRIYAVPKLWIPGFFKKFDEKSGRCFVDPYELGAEITDWILNQSREWDYSQPLSFLKGEKTPDWIKRSVVYGSLPRTTAAYNHKGSGYYEENDVLGFREAGTFFKMMLLLPFVKSLGADAIYLLPVSRMSDLFKKGDAPSPYSVKNPMELDERYHDPLLEPFKVDEEFKAFVEACHILGIRVILDFIPRTAARDSDLIREHPDWFYWIKVEELADYTPPRAEELPFKVPDEDELEIIYNKENVKRHLKKFTLPPNLIDPQKWEKIKREEGNILELIVKEFGIITPPGFSDLINDPQPTWDDVTFLRLYLDHPEASKRFLDPNQPPYVLYDVIKASKFPGKEPNRELWEYLAGVIPHYQKKYGIDGARLDMGHALPKELLDLIIKNVKEYDPAFVMIAEELDMEKDKASKEAGYDVILGSSWYFAGRVEEIGKLPDIAEELVLPFLASVETPDTPRIATRKYASKMKKLAPFVTYFLPNSIPYVNTGQEIGEKQPMNLGLDTDPNLRKVLSPTDEFFGKLAFFDHYVLHWDSPDRGVLNFIKKLIKVRQQFLDFVLNGKFENLTTKDLVMYSYEKNGQKIVIAANVGKEPKEITGGRVWNGKWSDEEKVVLKPLEFALVVQE | not soluble
EHRSIMNTLNFLESHYPVTAEDAYLLKTNYVFDVSISELFGWFIGDGRLVILPPNGEKSPQLCMDYIETYKVTHINFVPAMLHVFLEMAKDNKRFTEDGPLKYMMVAGEAFPKVLVKKAVSLFTNCRVENIYGPTEASIYAAYFGCGKGDIASHHTPIGKP | not soluble
MAKSFNQAASELTDIFPNISLTGFDGVNYPVTVNCPMHGNVRYSTFNALIKSKYGCPECAKMSKTQTPPNVGKPLLILDTTTNETLTFPSVTAAGAALGVHFQQINHRLKGRTSPDNLISNRYKVLGYDR | not soluble
MSAIPENANVTVLNKNEKKARELIGKLGLKQIPGIIRVTFRKKDNQIYAIEKPEVFRSAGGNYVVFGEAKVDNFTQKLAAAQQQAQASGIMPSNEDVATKSPEDIQADMQAAAEGSVNAAAEEDDEEGEVDAGDLNKDDIELVVQQTNVSKNQAIKALKAHNGDLVNAIMSLSK | soluble
MSTFKPLKILASRRQVLKAGLAAMTLSGVASQVSAKEQPLKTSNGHSKPAAKKAGGRRIVMLDPGHGGIDTGAIGHNGSKEKHVVLAIAKNVRSILRSNGIDARLTRTGDTFIPLYDRVEIAHQHGADLFMSIHADGFTNPSAAGASVFALSNRGASSAMAKYLSDRENRADEVAGKKATDKDHLLQQVLFDLVQTDTIKNSLTLGSHILKKIKPVHKLHSRNTEQAAFVVLKSPSIPSVLVETSFITNPNEEKLLGTTAFRQKIATAIANGIISYFHWFDNQKAHSKRR | not soluble
GRDFRFSISPNFTWVKNAVEKLANGATEEINNNRIVGQPIGIIYGYETDGLFVDQAEIDAAPEQLVSKSGLKPGYVKYKDISGPDGVPDGKVDAQYDRTVLGSTTPKFYYGLNLSASYKGFDFSALLQGLGGHKRLIGSYMAYAFYNGGQIQRWQAESCWKEENPDKWAEYPRLETLNMNDTNLQTSDYWVRNASFLRVKNIQIGYTFPKAWTKKIGLENVRVYVSGQNLFSFNSFYKGWDPENEIGTGDSPSYYPVNSIYSFGFNFKF | not soluble
MAKVYYEKDVTVNVLKEKKVAIIGYGSQGHAHAQNLRDNGFDVVVGLRKGKSWDKAKEDGFSVYTVAEAAKQADVVMILLPDELQPEVYEEEIAPNLQAGNSLVFAHGFNVHFDQVKPPVNVDVFLVAPKGPGHLVRRTFSEGGAVPALFAVYQDATGVATEKALSYADGIGATRAGVLETTFKEETETDLFGEQAVLCGGVTALVKAGFETLVDAGYQPELAYFECLHELKLIVDLMYEGGLENMRYSVSDTAQWGDFVSGPRVVTEDTKKAMGTVLAEIQDGTFARGWIAEHKAGKPNFYATNEKENEHEIEVVGRKLRGMMPFVQPRVKAGVK | not soluble
EVLRVQDKYFHIKCFVCKACGCDLAEGGFFVRQGEYICTLDYQRLYGTRCFSCDQFIEGEVVSALGKTYHPDCFVCAVCRLPFPPGDRVTFNGKECMCQKCSLPVSVGSSAHLSQGLRSCGGCGTEIKNGQALVALDKHWHLGCFKCKSCGKLLNAEYISKDGLPYCEADYHAKFGIRCDSCEKYITGRVLEAGEKHYHPSCALCVRCGQMFAEGEEMYLQGSSIWHPACRQAARTEDRNKETRTSSESIISVPASSTSGSPSRVIYAKLGGEILDYRDLAALPKSKAIYDIDRPDMISYSPYISHSAGDRQSYGEGDQDDRSYKQCRTSSPSSTGSVSLGRYTPTSRSPQHYSRPGSESGRSTPSLSVLSDSKPPPSTYQQAPRHFHVPDTGVKDNIYRKPPIYRQHAARRSDGEDGSLDQDNRKKSSWLMLKGDADTRTNSPDLDTQSLSHSSGTDRDPLQRMAGDSFHSQYKIYPYDSLIVTNRIRVKLPKDVDRTRLERHLSPEEFQEVFGMSIEEFDRLALWKRNDLKKKALLF | soluble
MSKVIQKKNHWTSRVHECTVKRGPQGELGLTVLGGAEHGEFPYVGAVAAVEAAGLPGGGEGPRLGEGELLLEVQGVRVSGLPRYDVLGVIDSCKEAVTFKAVRQGGRLNKDLRHFLNQRFQKGSPDHELQQTIRDNLYRHAVPCTTRSPREGEVPGVDYNFLTVKEFLDLEQSGTLLEVGTYEGNYYGTPKPPSQPVSGKVITTDALHSLQSGSKQSTPKRTKSYNDMQNAGIVHAENEEEDDVPEMNSSFTADSGEQEEHTLQETALPPVNSSIIAAPITDPSQKFPQYLPLSAEDNLGPLPENWEMAYTENGEVYFIDHNTKTTSWLDPRCLNKQQKPLEECEDDEGVHTEELDSELELPAGWEKIEDPVYGIYYVDHINRKTQYENPVLEAKRKKQLEQQQQQQQQQQQQQQQQQQQQQTEEWTEDHSALVPPVIPNHPPSNPEPAREVPLQGKPFFTRNPSELKGKFIHTKLRKSSRGFGFTVVGGDEPDEFLQIKSLVLDGPAALDGKMETGDVIVSVNDTCVLGHTHAQVVKIFQSIPIGASVDLELCRGYPLPFDPDDPNTSLVTSVAILDKEPIIVNGQETYDSPASHSSKTGKVNGMKDARPSSPADVASNSSHGYPNDTVSLASSIATQPELITVHIVKGPMGFGFTIADSPGGGGQRVKQIVDSPRCRGLKEGDLIVEVNKKNVQALTHNQVVDMLVECPKGSEVTLLVQRGGLPVPKKSPKSQPLERKDSQNSSQHSVSSHRSLHTASPSHSTQVLPEFPPAEAQAPDQTDSSGQKKPDPFKIWAQSRSMYENRPMSPSPASGLSKGEREREINSTNFGECPIPDYQEQDIFLWRKETGFGFRILGGNEPGEPIYIGHIVPLGAADTDGRLRSGDELICVDGTPVIGKSHQLVVQLMQQAAKQGHVNLTVRRKVVFAVPKTENEVPSPASSHHSSNQPASLTEEKRTPQGSQNSLNTVSSGSGSTSGIGSGGGGGSGVVSTVVQPYDVEIRRGENEGFGFVIVSSVSRPEAGTTFGNACVAMPHKIGRIIEGSPADRCGKLKVGDRILAVNGCSITNKSHSDIVNLIKEAGNTVTLRIIPGDESSNATLLTNAEKIATITTTHTPSQQGTQETRNTTKPKQESQFEFKAPQATQEQDFYTVELERGAKGFGFSLRGGREYNMDLYVLRLAEDGPAERCGKMRIGDEILEINGETTKNMKHSRAIELIKNGGRRVRLFLKRGDGSVPEYAM | soluble
MGSDKIHHHHHHMAKVFLKRMNRRISGGHLWIFYNEILKVEGEYENGSVVDVFRPDGSFFGKGYINDNSKIRVRILTWKNEVIDRNFIKNRIESALKRKKKLVKETTAFRVVHSEGDFLPGLIVDLFGDYLVFQITTLGMEKMKDWILDSLVEIFKPKGIYEKSEGTFREKEGLDNREEWVYGKGPELIEFEMNGFKFLADTRGQKTGFFLDQRENARMVMDLAEGKVCLDVFSYTGNFAVHLLKGGAKHVTLVDYSERALEVAREILKLNGFDSSRYDLLPGNAFDILKSFDREGRKYDLVVLDPPSFAKSSSNLESARRGYKEINLRAMRILKKPGVLVTSSCTQIVSEELFREILFDASFDTKTSLTVLRRGGQPPDHPVLMNVPETQYLKFYILQVDKR | not soluble
EGIPWEGNYTSWLEQKDARLQQEASQESARQKTIEKELEWVRKNPKGRQAKSKARMARFEELQNTEHQKRNETNELFIPPGER | soluble
